The source of these data is patent US12338199B2, “Bis-octahydrophenanthrene carboxamides and protein conjugates thereof” (REGENERON PHARMACEUTICALS, INC., priority 2017, dated 2025).

Assay [1] has as its target T1, His9-hMSR1 (human MSR1 extracellular domain) (Homo sapiens, UniProt P21757).
T1 construct: human MSR1 extracellular domain expressed with a N-terminal nonahistidine tag; purchased R&D Systems 2708-MS
T1 sequence (P21757 77-451 limits assumed): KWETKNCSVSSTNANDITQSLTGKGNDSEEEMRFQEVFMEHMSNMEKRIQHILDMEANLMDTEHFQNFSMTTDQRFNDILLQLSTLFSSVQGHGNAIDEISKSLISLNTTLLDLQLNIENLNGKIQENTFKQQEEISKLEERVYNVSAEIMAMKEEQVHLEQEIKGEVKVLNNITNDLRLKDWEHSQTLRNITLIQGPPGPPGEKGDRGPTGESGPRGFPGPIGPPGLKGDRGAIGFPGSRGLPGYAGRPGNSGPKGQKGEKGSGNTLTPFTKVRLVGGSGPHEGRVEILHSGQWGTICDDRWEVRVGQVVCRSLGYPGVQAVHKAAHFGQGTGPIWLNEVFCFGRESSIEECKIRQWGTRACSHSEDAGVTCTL
Put plainly: Biacore surface plasmon resonance binding kinetics. The settings on record: 25° C.; for kd (s^−1) / kd: * = no dissociation observed, kd fixed at 1.00E−05; for Kd: calculated from the kinetic rates, read-out: KD (Molar); for ka: His9-hMSR1 binding to captured antibody. How it is done:
The MSR1 antibodies disclosed herein were conjugated to various liver X receptor (LXR) payloads. This example describes how equilibrium dissociation constant (KD) values for human MSR1 reagents binding to human anti-MSR1 antibody-drug conjugates and their corresponding unconjugated parental antibodies were determined using a real-time surface plasmon resonance-based Biacore T200 biosensor.
All binding studies were performed in 10 mM HEPES, 300 mM NaCl, 3 mM EDTA, and 0.05% v/v Surfactant Tween-20, pH 7.4 (HBS-ET) running buffer at 25° C. The Biacore CM4 sensor chip surface was first derivatized by amine coupling with the goat anti-human Fcγ specific polyclonal antibody (Jackson ImmunoResearch Laboratories, Cat # BR-1008-39) to capture anti-MSR1 monoclonal antibodies. Binding studies were performed on human MSR1 extracellular domain expressed with a N-terminal nonahistidine tag (His9-hMSR1; R&D Systems, Cat #2708-MS).
The association rate (ka) and dissociation rate (kd) were determined by fitting the real-time binding sensorgrams to a 1:1 binding model with mass transport limitation using Scrubber 2.0c curve-fitting software. Binding dissociation equilibrium constant (KD) and dissociative half-life (t½) were calculated from the kinetic rates as: […]

A further assay deals with THP1/LXR-Luc cells. Briefly: LXR-luciferase reporter bioassay in PMA-differentiated THP1/LXR-Luc cells. It counts as cell-based, human. Particulars: for S/N (signal to noise, ratio of RLU of standard one over RLU of standard eight) / EC50: PMA-differentiated THP1/LXR-Luc cells, 48 hours; for S/N (signal to noise, ratio of RLU of standard one over RLU of standard eight): luciferase activity; for EC50: luciferase activity (One-Glo), 10-point dose response 100 nM to 0.01 nM. An excerpt:
To test the efficacy of anti-MSR1 antibody-LXR conjugates in vitro, a cell-based LXR responsive luciferase reporter assay was developed. To generate the assay cell line, a LXR regulated luciferase reporter gene [Cignal Lenti LXR Reporter (luc) kit (Qiagen, Cat # CLS-001L)] was transduced into THP1 cells, and cells were selected for two weeks in puromycin. The lentivirus expresses the firefly luciferase gene under the control of a minimal CMV promoter and tandem repeats of the LXR transcriptional response element. The resulting cell line is referred to as THP1/LXR-Luc cells.
THP1/LXR-Luc cells were seeded onto 96 well plates at 40,000 cells/well in media containing RPMI supplemented with 10% FBS and pencillin/streptomycin and subsequently differentiated with 200 nM Phorbol Myristate Acetate (PMA) for 3 days. After the 3-day differentiation period, three-fold serial dilutions of antibody drug conjugates, unconjugated antibodies, or free payloads in fresh media were added to the cells at final concentration ranging from 100 nM to 0.01 nM. Media alone served as a blank control. Forty-eight hours later, luciferase activity was determined after the addition of One-Glo™ reagent (Promega, Cat # E6130) to each well. Relative light units (RLUs) were measured on a Victor luminometer (PerkinElmer) and EC50 values were determined using a four-parameter logistic equation over a 10-point dose response curve (GraphPad Prism). The signal to noise (S/N) was determined by calculating the ratio of RLU of standard one over RLU of standard eight for each of the unconjugated anti-MSR1 antibodies or free payloads. “LP #” represents a linker-payload for which the corresponding structures are provided elsewhere herein, and “P #” represents a payload for which the corresponding structures are provided elsewhere herein.

A further assay has as its system THP-1 cells. Briefly: BODIPY-cholesterol efflux in THP-1 macrophages. It counts as cell-based, human. How it is done: The ability of anti-MSR1 antibody-LXR conjugates to activate cholesterol efflux in a human macrophage cell line (THP-1; ATCC Catalog # TIB-202), was assessed using a fluorescent cholesterol analog.
Cells were differentiated into macrophages by addition of 100 nM Phorbol-12 myristate 13-acetate (Sigma, Catalog #P 8139) to the media and subjected to further incubation for 96 hours.
Percentage of BODIPY-cholesterol efflux was calculated using the following formula: [fluorescence in acceptor media/(fluorescence in acceptor media+fluorescence in cell lysate)]×100. Table 15 provides activated cholesterol efflux for the tested articles, and FIG. 15 illustrates the data in graph form.

Residue numbers refer to the chain shown, from its start. Names may count otherwise. Read-outs that look alike come from different tables or passages of the source. Bounds are passed on as bounds.

B1: H1H27754P-N297Q (antibody, V domains shown)
VH: EVQLVESGGGLVQPGGSLRLSCAASGFTFRTYAMTWVRQAPGKGLDWVSAITGDGGNTYYADSVKGRFTISRDNSKNTLYLQMNSLRAEDTAIYYCAKDQRFSFALYYFDYWGQGTLVTVSS
VL: DIQMTQSPSSVSASVGDRVTITCRASQGISSWLAWYQQKPGNAPKLLIYAAFSLQSGVPSRFSGSGSGTDFTLTISSLQPEDFATYYCQQANNFPWTFGQGTKVEIKR
B1: in assay [1], the “kd (s^−1)” value is reported as ≤ 1.00E−05* s^−1, the Kd (commonly the constant that tells how readily two partners part at equilibrium) was 49.9 pM and the “ka” value was 200000 M⁻¹ s⁻¹.

B2: H1H27731P-N297Q (antibody, V domains shown)
VH: QLQLQESGPGLVKPSETLSLTCTVSGGSISRISYYWGWIRQPPGKGLEWIGSIYDSGSTYYNPSLKSRVTISIDTSKNQFSLKLSSVTAADTAVYYCVRYSSSSAFAFDYWGQGTLVTVSS
VL: B1 VL with N42K, F52S, N93S, W96F, Q100P, E105D
B2: in assay [1], the “kd” value turned out to be 1e-05 s⁻¹, the Kd is 85.5 pM and the “ka” value is 117000 M⁻¹ s⁻¹.

B3: H1H27734P-N297Q (antibody, V domains shown)
VH: EVQLVESRGGLVQPGGSLRLSCAASGFTFSSYAMSWVRQAPGKGLEWVSAISGSGGSTFYADSVKGRFTISRDNSKNTVYLQMNSLRAEDTAVYYCAKALVLRFLEWLGDYWGQGTLVTVSS
VL: DIQMTQSPSTLSASVGDRVTITCRASQSISSWLAWFQQKPGKAPKLLIYKASSLESGVPSRFSGSGSGTEFTLTISSLQPDDFATYYCQQYKSYWTFGQGTKVEIKR
Turning to B3, in assay [1], the “kd” value stood at 0.000596 s⁻¹, the Kd is 7720 pM and the “ka” value stood at 77200 M⁻¹ s⁻¹.

B4: H1H21234N (antibody, V domains shown)
VH: QVQLQESGPGLVKPSETLSLTCTVTGGSISRNYWSWIRQPPGKGLEWIGYIYYSGSIDYNPSLKSRVTISVDTSKNQFSLKLSSMTAADTAVYYCARDRWNWKYGMDVWGQGTTVIVSS
VL: EIVLTQSPGTLSLSPGERATLSCRASQTVRNNYLAWYHQKPGQAPRLLIYGASSRATGIPDRFSGSGSGTDFTLTISRLEPEDFTVYYCHQYGNSPWTFGQGTKMEIKR
As to B4, in the assay with THP1/LXR-Luc cells (48-hour time point, in words), the “stimulation of the THP/Luc cells” value is recorded as “did not have any impact”.

B5: H1H21234N-N297Q (antibody, V domains shown)
VH: B4 VH
VL: B4 VL
As for B5, in assay [1], the “kd (s^−1)” value was ≤ 1.00E−05* s^−1, the Kd was 45.4 pM and the “ka” value amounted to 220000 M⁻¹ s⁻¹. For the same molecule, the “Maximum efflux (%)” value with THP-1 cells (24-hour treatment, BODIPY-cholesterol efflux) came to 18.7%. Further, the cholesterol efflux entry with THP-1 cells (after 24 hours, in words) is “did not demonstrated any measurable cholesterol efflux”. Also, in the assay on THP1/LXR-Luc cells, the “S/N (signal to noise, ratio of RLU of standard one over RLU of standard eight)” value is on record as “No activation” and the EC50 (as a rule, the concentration needed to bring the measured effect to its halfway point) is “No activation”.

B6: H1H21234N-N297Q-LP 13 (conjugate)
VH: B4 VH
VL: B4 VL
Regarding B6, the “S/N (signal to noise, ratio of RLU of standard one over RLU of standard eight)” value with THP1/LXR-Luc cells was found to be 9.6. In the assay on THP1/LXR-Luc cells (read-out: EC50), the EC50 is 980 pM.

B7: H1H27729P-N297Q (antibody, V domains shown)
VH: QVQLVESGGGLVKPGGSLRLSCAASGFIFSDYYMSWIRQAPGKGLEWVSYISSSGTTIYGDSVKGRFTMSRDNAKNSLYLQMNSLRAEDTAVYYCARNYALFDYWGQGTLVTVSS
VL: DIQMTQSPSSLSASVGDRVTITCQASQDISKYLNWYQQKPGKAPKLLIYYTSNLETGVPSRFSGSGSGTDFTFTISSLQPEDIATYYCHQSDYLPFTFGPGTKVDIKR
Consider B7, for which, in assay [1], the “kd” value was 0.000906 s⁻¹, the Kd was 8670 pM and the “ka” value is 105000 M⁻¹ s⁻¹.

B8: H1H27739P-N297Q (antibody, V domains shown)
VH: EVQLVESGGGLVQPGGSLRLSCTASGFTFSSYAMSWVRQAPGKGLEWVSAISGTGSSTYFTDSVKGRFAISRDNSKNTLYLQMNSLRAEDTAVYYCAKDGEWLSTVTLFDYWGQGTLVTVSS
VL: EIVMTQSPATLSVSPGERATLSCRASQSVSSNLAWYQQKPGQAPRLLIYGASTRATGIPARFSGSGSGTDFTLTISSLQSEDFALYYCQQYFIWPPHPTFGPGTKVDIKR
As to B8, in assay [1], the “kd” value was determined as 0.000555 s⁻¹, the Kd is 4680 pM and the “ka” value was determined as 119000 M⁻¹ s⁻¹.
